From US20220267427A1 (SYSMEX, published 2022)
Values belong to the binder of their own block, whether it stands above or below them.

Experiments:
[1] = target: T1, fCK18 in apoptosis-induced HepG2 cell culture supernatant (human, UniProt P05783 239-397); test: plate ELISA with K18-624 magnetic microbeads, K18-328Fab-ALP detector
T1 construct: Natural CK18 fragment from the culture supernatant of apoptosis-induced HepG2 cells (band around 18 KDa); also called fCK18 in apoptosis-inducing cells
T1 sequence: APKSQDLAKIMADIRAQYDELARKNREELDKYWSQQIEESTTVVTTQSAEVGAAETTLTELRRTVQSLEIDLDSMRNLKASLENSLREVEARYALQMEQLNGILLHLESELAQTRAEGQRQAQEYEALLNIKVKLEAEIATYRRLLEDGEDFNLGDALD
Protocol: (§1) Measurement samples of 3-fold dilution series (3-fold to 6561-fold dilution) were prepared from the apoptosis-induced HepG2 cell culture supernatant with a diluent (TBS, pH 7.5, 2% BSA), and fCK18 was measured. […] Based on the prepared calibration curve, fCK18 in the measurement sample was measured.
(§2) This solution was added to an ELISA plate at 25 μL/well, then each measurement sample was added at 25 μL/well, and the plate was incubated (1500 rpm, RT, 20 min). […] (3) After washing the plate, the HISCL (registered trademark) R4 reagent was added thereto at 50 μL/well, and then the mixture was stirred (1500 rpm, RT, 1 min). Thereafter, the HISCL (registered trademark) R5 reagent was added at 100 μL/well, and then the mixture was stirred (1000 rpm, RT, 10 sec). (4) Luminescence intensity was measured with a plate reader.

[2] = target: T1, fCK18 in apoptosis-induced HepG2 cell …; test: HISCL sandwich immunoassay; K18-624 magnetic microbeads capture, K18-328Fab-ALP detector; fCK18 182.28 ng/mL
[3] = target: T1, fCK18 in apoptosis-induced HepG2 cell …; test: plate ELISA with K18-624 magnetic microbeads, K18-328Fab-ALP detector; fCK18 6.79 ng/mL
Protocol: as §1, §2

rfCK18 (239-396) = target: T2, rfCK18 (239-396) (human, UniProt P05783 239-396); test: solid phase ELISA; antigen (0.3 ug/mL) captured by anti-GST or penta HIS antibody on plate, antibody 5 to 10 ng/mL
T2 construct: Bought (Cloud-Clone-Corp.); captured through an anti-GST or penta HIS antibody, the tag is not described
T2 sequence: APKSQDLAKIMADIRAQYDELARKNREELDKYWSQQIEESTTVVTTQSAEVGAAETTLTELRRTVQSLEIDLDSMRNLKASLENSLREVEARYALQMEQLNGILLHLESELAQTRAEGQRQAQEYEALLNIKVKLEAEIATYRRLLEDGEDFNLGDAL
Protocol: (1) An ANTI GST antibody or a penta HIS antibody was added to an ELISA plat at 2.5 μg/mL and 50 μL/well, and the plate was allowed to stand at 4° C. overnight to immobilize the antibody. Thereafter, the plate was washed three times with PBST, and Buffer I′ (10 mM NaH₂PO₄.2H₂O, 149.7 mM NaCl, 2.5 mM EDTA 2Na, 0.10% BSA, pH 7.0) was added thereto at 200 μL/well to prepare a plate stored at 4° C. overnight. […] (3) The plate was washed three times with PBST, and 50 μL each of each antigen diluent was added thereto, followed by shaking for 45 minutes. […] (6) The plate was washed three times with PBST, and 15000-fold diluted Peroxidase-conjugated Affinipure F(ab)′2 Fragment Goat Anti-Mouse IgG (H+L) (Jackson) was added thereto at 50 μL/well, followed by shaking for 45 minutes. (7) The plate was washed three times with PBST, TMB Mix (1-step Ultra TMB-ELISA (Thermo Scientific):3% H₂O₂: Phosphate-Citrate buffer (Sigma)=15:0.15:14.85) was added thereto at 100 μL/well, and the mixture was reacted at room temperature for 10 minutes. Thereafter, 1 M H₂SO₄ was added thereto at 100 μL/well to stop the reaction. (8) Absorbance of the reaction solution at 450 nm was measured with a plate reader.

[4] = target: T1, fCK18 in apoptosis-induced HepG2 cell …; test: plate ELISA with K18-624 magnetic microbeads, K18-328Fab-ALP detector; fCK18 0.74 ng/mL
Protocol: as §1, §2

[5] = target: T1, fCK18 in apoptosis-induced HepG2 cell …; test: plate ELISA with K18-624 magnetic microbeads, K18-328Fab-ALP detector; fCK18 60.73 ng/mL
Protocol: as §1, §2

[6] = target: T1, fCK18 in apoptosis-induced HepG2 cell …; test: HISCL sandwich immunoassay; K18-624 magnetic microbeads capture, K18-328Fab-ALP detector; fCK18 2.23 ng/mL
[7] = target: T1, fCK18 in apoptosis-induced HepG2 cell …; test: HISCL sandwich immunoassay; K18-624 magnetic microbeads capture, K18-328Fab-ALP detector
[8] = target: T1, fCK18 in apoptosis-induced HepG2 cell …; test: plate ELISA with K18-624 magnetic microbeads, K18-328Fab-ALP detector; fCK18 182.28 ng/mL
Protocol: as §1, §2

fCK18 concentration detectable (S/N ratio of 2 or more) [1]: ≥ 0.09 ng/mL
fold detection sensitivity compared with Comparative Example 1 (M30 antibody) [1]: ~24 fold
S/N ratio [2]: 2070
S/N ratio [3]: 158
Abs450 (rfCK18 (239-396)): 0.017
S/N ratio [4]: 16.1
S/N ratio [5]: 1850
S/N ratio [6]: 25.9
fCK18 concentration detectable (S/N ratio of 2 or more) [7]: ≥ 0.28 ng/mL
fold detection sensitivity compared with Comparative Example 1 (M30 antibody) [7]: ~8 fold
S/N ratio [8]: 5560
B1: K18-624 antibody (antibody, V domains shown)
VH: DVQLVESGGGLVQPGGSRKLSCAASGFTFSSFGMHWVRQAPEKGLEWVAYISSGSTTIYYADTVKGRFTISRDNPKNTLFLQMTSLRSEDTAMYYCARRGMITTGAWFAYWGQGTLVTVSA
VL: DILLTQSPAILSVSPGERVSFSCRASQRIGTSIHWYQQRTNGSPRLLIKYASESISGIPSRFSGSGSGTDFTLSINSVESEDIADYYCQQSYIWPFTFGSGTKLEIK
notes: Mouse monoclonal antibody from a hybridoma (Balb/C mouse immunised with Peptide 1-KLH)

Abs450 (rfCK18 (239-396)): 0.525
B2: K18-328 antibody (antibody, V domains shown)
VH: QVHLQQSAAELARPGASVKMSCKASGYTFTNYTIHWIKQRPGQGLEWIGYINPSSGYTDYNQNFKDKTTLTADKSSTTVYMQLSSLTSEDSAVYYCARQIPFAYWGQGTLVTVSA
VL: not shown
notes: Mouse monoclonal antibody from a hybridoma (immunogen full length rCK18)
